Molecular target: T1, human prostate specific membrane antigen (PSMA) (human, UniProt Q04609 1-750)
T1 construct: PSMA was on the cell surface: LNCaP and 22Rv1 (endogenous), PC3-PSMA and Jurkat-PSMA (lentiviral transduction); also called hPSMA
Test: flow cytometry of phage scFv clones after cell panning on Jurkat-PSMA (parental Jurkat as negative selection)
From the text: A collection of human scFv antibody phage display libraries (diversity=10×10¹⁰) constructed by Eureka Therapeutics (i.e., the E-ALPHA® phage display library) was used for the selection of human mAbs specific to PSMA. Specifically, the E-ALPHA® phage display library was used to pan against a Jurkat cell line that has been engineered to express PSMA. The parental Jurkat cell line was used for negative selection. […] The VL in each scFv is underlined, the VH in each scFv is double underlined, and the linker is in bold italic type. The CDRs are in underlined bold type and double underlined bold type.

T1 sequence (Q04609 whole entry): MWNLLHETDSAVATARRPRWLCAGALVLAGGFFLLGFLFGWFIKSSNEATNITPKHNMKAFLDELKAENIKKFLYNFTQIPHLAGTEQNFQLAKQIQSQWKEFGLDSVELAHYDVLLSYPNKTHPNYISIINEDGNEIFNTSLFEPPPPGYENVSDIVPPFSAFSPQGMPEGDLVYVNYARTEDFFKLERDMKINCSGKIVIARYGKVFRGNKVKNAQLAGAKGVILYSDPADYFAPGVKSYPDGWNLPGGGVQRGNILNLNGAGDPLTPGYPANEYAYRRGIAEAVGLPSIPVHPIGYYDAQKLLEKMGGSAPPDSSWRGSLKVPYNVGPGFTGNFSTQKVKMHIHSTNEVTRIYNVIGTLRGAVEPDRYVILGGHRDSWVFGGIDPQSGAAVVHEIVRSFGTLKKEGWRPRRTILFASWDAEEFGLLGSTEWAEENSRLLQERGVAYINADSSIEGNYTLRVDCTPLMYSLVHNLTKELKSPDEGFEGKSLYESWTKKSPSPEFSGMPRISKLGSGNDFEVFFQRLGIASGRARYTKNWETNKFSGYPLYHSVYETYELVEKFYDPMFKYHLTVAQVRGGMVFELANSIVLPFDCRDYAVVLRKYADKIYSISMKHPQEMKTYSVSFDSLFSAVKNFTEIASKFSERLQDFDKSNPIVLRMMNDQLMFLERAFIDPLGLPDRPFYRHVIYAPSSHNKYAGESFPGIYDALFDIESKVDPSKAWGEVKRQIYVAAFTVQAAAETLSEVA

B1: Clone A anti-PSMA scFv (scFv)
scFv: QSVLTQPPSVSGAPGQRVTISCTGSSSNIGAGYDVHWYQQLPGTAPKLLIYGNSNRPSGVPDRFSGSKSGTSASLAITGLQAEDEADYYCQSYDSSLSGYVFGTGTKVTVLGSRGGGGSGGGGSGGGGSLEMAEVQLVQSGAEVKKPGESLKISCKGSGYSFTSYWIGWVRQMPGKGLEWMGIIYPGDSDTRYSPSFQGQVTISADKSISTAYLQWSSLKASDTAMYYCARSMGSSLYASSDVWGQGTLVTVSS
notes: Human scFv (VL-linker-VH) isolated from the E-ALPHA phage display library; the phage coat fusion is not described; also called phage clone A
Question: Does B1 bind?
Answer: binds
